From publication PMC10786891, “Massively parallel profiling of RNA-targeting CRISPR-Cas13d”
Substitutions are numbered along the chain they refer to. Numbers in names are those of the source.

Molecular target: T1, EsCas13d, nuclease-dead (Eubacterium siraeum, UniProt B0MS50, R295A;H300A;R849A;H854A)
T1 sequence: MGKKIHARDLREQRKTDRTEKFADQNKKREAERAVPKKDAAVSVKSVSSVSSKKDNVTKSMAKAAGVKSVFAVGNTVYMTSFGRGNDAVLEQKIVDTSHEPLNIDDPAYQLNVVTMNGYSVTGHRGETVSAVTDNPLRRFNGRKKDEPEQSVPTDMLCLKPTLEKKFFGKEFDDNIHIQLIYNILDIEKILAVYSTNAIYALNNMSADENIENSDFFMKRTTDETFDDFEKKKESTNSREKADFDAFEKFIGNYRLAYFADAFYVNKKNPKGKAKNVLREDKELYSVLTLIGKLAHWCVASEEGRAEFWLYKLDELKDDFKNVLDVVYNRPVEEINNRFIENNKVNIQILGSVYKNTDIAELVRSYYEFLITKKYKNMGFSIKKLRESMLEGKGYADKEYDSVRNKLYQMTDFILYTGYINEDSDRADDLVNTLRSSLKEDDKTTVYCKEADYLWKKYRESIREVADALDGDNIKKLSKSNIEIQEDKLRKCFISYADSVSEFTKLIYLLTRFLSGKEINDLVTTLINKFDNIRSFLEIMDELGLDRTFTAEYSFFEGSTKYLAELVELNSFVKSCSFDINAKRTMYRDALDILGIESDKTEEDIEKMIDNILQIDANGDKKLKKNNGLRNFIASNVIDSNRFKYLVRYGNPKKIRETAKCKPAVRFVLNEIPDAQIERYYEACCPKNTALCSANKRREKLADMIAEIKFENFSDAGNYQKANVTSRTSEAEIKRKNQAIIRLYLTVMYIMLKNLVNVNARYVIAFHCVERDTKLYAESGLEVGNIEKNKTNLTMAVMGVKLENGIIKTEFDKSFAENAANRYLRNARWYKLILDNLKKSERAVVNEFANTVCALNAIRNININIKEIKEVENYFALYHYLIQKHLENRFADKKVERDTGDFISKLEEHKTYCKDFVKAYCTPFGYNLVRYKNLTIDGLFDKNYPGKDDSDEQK
Experiment: crRNA (strand 1, pre-loaded); Mg2+; 40 mM Tris-HCl pH 7.5, 150 mM NaCl, 6 mM MgCl2, 1 mM DTT, 0.1% Tween-20, 0.2 mg/ml BSA; 25 C; 10 min per concentration, then washed
Conditions: tags: His6-TwinStrep-SUMO cleaved; N-terminal SNAP kept (SNAP-Surface 488); label: 3' end held by stalled T7 RNA polymerase

B1: target 1 U8A,A9U (mixed)
RNA 1: CACCCGUGCAAAAAUGCAGGGGUCUAAAACUGAGCGGAUAACCUCUCUAUGG
RNA 2: GGGAAUGGAUCCACAUCUACGAAUUCGUACCAUAGAGAGGUUUACCGCUCACCGAGAUCGGAAGAGCACACGU
Kd: 0.0129 ± 0.0008 µM

B2: target 1 MT 5'PFS GUC 3'PFS AUC (mixed)
RNA 1: B1 RNA 1
RNA 2: B1 RNA 2 with A29C, U43A, A44U, C52A, C53U, G54C
Kd: 0.0285 ± 0.011 µM

B3: target 1 MT 5'PFS GUA 3'PFS UCA (mixed)
RNA 1: B1 RNA 1
RNA 2: B1 RNA 2 with U43A, A44U, C52U, G54A
Kd: 0.0123 ± 0.00095 µM

B4: target 1 MT 5'PFS CUA 3'PFS AGG (mixed)
RNA 1: B1 RNA 1
RNA 2: B1 RNA 2 with G27C, U43A, A44U, C52A, C53G
Kd: 0.041 ± 0.019 µM

B5: target 1 MT 5'PFS CUA 3'PFS UAG (mixed)
RNA 1: B1 RNA 1
RNA 2: B1 RNA 2 with G27C, U43A, A44U, C52U, C53A
Kd: 0.0049 ± 0.0009 µM

B6: target 1 MT 5'PFS CAG 3'PFS ACA (mixed)
RNA 1: B1 RNA 1
RNA 2: B1 RNA 2 with G27C, U28A, A29G, U43A, A44U, C52A, G54A
Kd: 0.031 ± 0.0155 µM

B7: target 1 MT 5'PFS AGG 3'PFS ACG (mixed)
RNA 1: B1 RNA 1
RNA 2: B1 RNA 2 with G27A, U28G, A29G, U43A, A44U, C52A
Kd: 0.041 ± 0.01 µM

B8: target 1 MT 5'PFS CAG 3'PFS ACG (mixed)
RNA 1: B1 RNA 1
RNA 2: B1 RNA 2 with G27C, U28A, A29G, U43A, A44U, C52A
Kd: 0.0195 ± 0.00515 µM

B9: target 1 MT 5'PFS GUC 3'PFS UUC (mixed)
RNA 1: B1 RNA 1
RNA 2: B1 RNA 2 with A29C, U43A, A44U, C52U, C53U, G54C
Kd: 0.0191 ± 0.0045 µM

B10: target 1 MT 5'PFS ACA 3'PFS AUC (mixed)
RNA 1: B1 RNA 1
RNA 2: B1 RNA 2 with G27A, U28C, U43A, A44U, C52A, C53U, G54C
Kd: 0.056 ± 0.0255 µM

B11: target 1 MT 5'PFS GUC 3'PFS AUU (mixed)
RNA 1: B1 RNA 1
RNA 2: B1 RNA 2 with A29C, U43A, A44U, C52A, C53U, G54U
Kd: 0.0161 ± 0.00215 µM

B12: target 1 MT 5'PFS UUA 3'PFS AUA (mixed)
RNA 1: B1 RNA 1
RNA 2: B1 RNA 2 with G27U, U43A, A44U, C52A, C53U, G54A
Kd: 0.077 ± 0.025 µM

B13: target 1 MT 5'PFS UUA 3'PFS AUG (mixed)
RNA 1: B1 RNA 1
RNA 2: B1 RNA 2 with G27U, U43A, A44U, C52A, C53U
Kd: 0.0645 ± 0.023 µM

B14: target 1 MT 5'PFS GUC 3'PFS AUA (mixed)
RNA 1: B1 RNA 1
RNA 2: B1 RNA 2 with A29C, U43A, A44U, C52A, C53U, G54A
Kd: 0.026 ± 0.007 µM

B15: target 1 MT 5'PFS GUA 3'PFS UCG (mixed)
RNA 1: B1 RNA 1
RNA 2: B1 RNA 2 with U43A, A44U, C52U
Kd: 0.00856 ± 0.00055 µM

B16: target 1 MT 5'PFS UUA 3'PFS AUU (mixed)
RNA 1: B1 RNA 1
RNA 2: B1 RNA 2 with G27U, U43A, A44U, C52A, C53U, G54U
Kd: 0.0132 ± 0.0021 µM

B17: target 1 MT 5'PFS AGG 3'PFS ACC (mixed)
RNA 1: B1 RNA 1
RNA 2: B1 RNA 2 with G27A, U28G, A29G, U43A, A44U, C52A, G54C
Kd: 0.0465 ± 0.022 µM

B18: target 1 U3C,C4G (mixed)
RNA 1: B1 RNA 1
RNA 2: B1 RNA 2 with U43A, A44U, C48G, U49C
Kd: 0.0114 ± 0.0006 µM

B19: target 1 MT 5'PFS GUC 3'PFS UUG (mixed)
RNA 1: B1 RNA 1
RNA 2: B1 RNA 2 with A29C, U43A, A44U, C52U, C53U
Kd: 0.0119 ± 0.00175 µM

B20: target 1 MT 5'PFS UUA 3'PFS CGC (mixed)
RNA 1: B1 RNA 1
RNA 2: B1 RNA 2 with G27U, U43A, A44U, C53G, G54C
Kd: 0.018 ± 0.007 µM

B21: target 1 MT 5'PFS GCA 3'PFS CAG (mixed)
RNA 1: B1 RNA 1
RNA 2: B1 RNA 2 with U28C, U43A, A44U, C53A
Kd: ~0.0365 µM

B22: target 1 MT 5'PFS AGG 3'PFS ACU (mixed)
RNA 1: B1 RNA 1
RNA 2: B1 RNA 2 with G27A, U28G, A29G, U43A, A44U, C52A, G54U
Kd: 0.042 ± 0.012 µM

B23: target 1 MT 5'PFS GUA 3'PFS UCU (mixed)
RNA 1: B1 RNA 1
RNA 2: B1 RNA 2 with U43A, A44U, C52U, G54U
Kd: 0.0083 ± 0.00095 µM

B24: target 1 MT 5'PFS CAG 3'PFS ACC (mixed)
RNA 1: B1 RNA 1
RNA 2: B1 RNA 2 with G27C, U28A, A29G, U43A, A44U, C52A, G54C
Kd: 0.024 ± 0.0115 µM

B25: target 1 C7A,G12A (mixed)
RNA 1: B1 RNA 1
RNA 2: B1 RNA 2 with G40A, U43A, A44U, C45A
Kd: 0.0096 ± 0.0008 µM

B26: target 1 MT 5'PFS CUA 3'PFS UAA (mixed)
RNA 1: B1 RNA 1
RNA 2: B1 RNA 2 with G27C, U43A, A44U, C52U, C53A, G54A
Kd: 0.006 ± 0.0013 µM

B27: target 1 MT 5'PFS UCA 3'PFS CCG (mixed)
RNA 1: B1 RNA 1
RNA 2: B1 RNA 2 with G27U, U28C, U43A, A44U
Kd: ~0.025 µM

B28: target 1 MT 5'PFS UCA 3'PFS CCC (mixed)
RNA 1: B1 RNA 1
RNA 2: B1 RNA 2 with G27U, U28C, U43A, A44U, G54C
Kd: ~0.069 µM

B29: target 1 MT 5'PFS ACA 3'PFS AUG (mixed)
RNA 1: B1 RNA 1
RNA 2: B1 RNA 2 with G27A, U28C, U43A, A44U, C52A, C53U
Kd: 0.0395 ± 0.0145 µM

B30: target 1 insA 3' of 10,insG 3' of 3 (mixed)
RNA 1: B1 RNA 1
RNA 2: GGGAAUGGAUCCACAUCUACGAAUUCGUACCAUAGAGAGGUUAAUCCGCUGCACCGAGAUCGGAAGAGCACACGU
Kd: 0.00718 ± 0.00025 µM

B31: target 1 MT 5'PFS CUA 3'PFS AGU (mixed)
RNA 1: B1 RNA 1
RNA 2: B1 RNA 2 with G27C, U43A, A44U, C52A, C53G, G54U
Kd: 0.0122 ± 0.00365 µM

B32: target 1 MT 5'PFS CAA 3'PFS CUC (mixed)
RNA 1: B1 RNA 1
RNA 2: B1 RNA 2 with G27C, U28A, U43A, A44U, C53U, G54C
Kd: ~0.025 µM

B33: target 1 MT 5'PFS GUA 3'PFS UCC (mixed)
RNA 1: B1 RNA 1
RNA 2: B1 RNA 2 with U43A, A44U, C52U, G54C
Kd: 0.00732 ± 0.00061 µM

B34: target 1 MT 5'PFS GCA 3'PFS CAA (mixed)
RNA 1: B1 RNA 1
RNA 2: B1 RNA 2 with U28C, U43A, A44U, C53A, G54A
Kd: ~0.0325 µM

B35: target 1 MT 5'PFS ACA 3'PFS AUA (mixed)
RNA 1: B1 RNA 1
RNA 2: B1 RNA 2 with G27A, U28C, U43A, A44U, C52A, C53U, G54A
Kd: 0.0123 ± 0.0039 µM

B36: target 1 MT 5'PFS CUA 3'PFS UAC (mixed)
RNA 1: B1 RNA 1
RNA 2: B1 RNA 2 with G27C, U43A, A44U, C52U, C53A, G54C
Kd: ~0.0039 µM

B37: target 1 MT 5'PFS GUG 3'PFS AGA (mixed)
RNA 1: B1 RNA 1
RNA 2: B1 RNA 2 with A29G, U43A, A44U, C52A, C53G, G54A
Kd: 0.0159 ± 0.001 µM

B38: target 1 MT 5'PFS CAA 3'PFS CUG (mixed)
RNA 1: B1 RNA 1
RNA 2: B1 RNA 2 with G27C, U28A, U43A, A44U, C53U
Kd: 0.0145 ± 0.005 µM

B39: target 1 MT 5'PFS GCA 3'PFS CAU (mixed)
RNA 1: B1 RNA 1
RNA 2: B1 RNA 2 with U28C, U43A, A44U, C53A, G54U
Kd: 0.035 ± 0.011 µM

B40: target 1 MT 5'PFS GUC 3'PFS AUG (mixed)
RNA 1: B1 RNA 1
RNA 2: B1 RNA 2 with A29C, U43A, A44U, C52A, C53U
Kd: 0.0245 ± 0.004 µM
